Where two headings read alike, the source gives them in different places.
Key:
[1] = molecular target: Factor XIa (activated factor XI), human plasma (human); assay: enzyme inhibition kinetics
[2] = molecular target: Factor Xa (activated factor X), human plasma (human); assay: titration of protease activity
[3] = molecular target: Factor XIa (activated factor XI), human plasma (human); assay: titration of protease activity
[4] = molecular target: Factor Xa (activated factor X), human plasma (human); assay: titration of protease activity; remark: listed apart in the source
[5] = molecular target: FXa-R240A (heparin-binding exosite mutant of factor Xa) (UniProt P00742); assay: enzyme inhibition kinetics
[6] = molecular target: FXa-R240A (heparin-binding exosite mutant of factor Xa) (UniProt P00742); assay: enzyme inhibition kinetics; remark: listed apart in the source
[7] = molecular target: Factor Xa (activated factor X), human plasma (human); assay: enzyme inhibition kinetics
[8] = molecular target: Factor XIa (activated factor XI), human plasma (human); assay: enzyme inhibition kinetics; remark: listed apart in the source
[9] = molecular target: Factor XIa (activated factor XI), human plasma (human); assay: titration of protease activity; remark: listed apart in the source
[10] = molecular target: Factor Xa (activated factor X), human plasma (human); assay: titration of protease activity; remark: listed apart in the source
[11] = molecular target: Factor Xa (activated factor X), human plasma (human); assay: enzyme inhibition kinetics; remark: listed apart in the source
[12] = molecular target: Factor Xa (activated factor X), human plasma (human); assay: enzyme inhibition kinetics; remark: listed apart in the source

Chain of Factor Xa (activated factor X), human plasma (human) (P00742 whole entry): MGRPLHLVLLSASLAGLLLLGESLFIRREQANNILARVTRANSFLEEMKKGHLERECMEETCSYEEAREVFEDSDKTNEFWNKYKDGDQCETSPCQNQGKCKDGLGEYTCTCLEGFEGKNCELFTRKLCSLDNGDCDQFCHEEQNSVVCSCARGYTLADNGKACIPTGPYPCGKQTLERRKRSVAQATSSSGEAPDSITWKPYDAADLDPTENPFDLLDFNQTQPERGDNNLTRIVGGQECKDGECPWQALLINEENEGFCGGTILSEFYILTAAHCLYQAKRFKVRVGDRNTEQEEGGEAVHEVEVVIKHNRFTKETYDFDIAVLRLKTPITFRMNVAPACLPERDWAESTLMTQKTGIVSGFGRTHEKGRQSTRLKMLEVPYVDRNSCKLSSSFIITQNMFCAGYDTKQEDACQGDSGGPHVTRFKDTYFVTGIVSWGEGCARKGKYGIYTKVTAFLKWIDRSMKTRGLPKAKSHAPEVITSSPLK

Row | Binder | k2(app) (apparent second-order association rate constant of inhibition) [1] | SI (stoichiometry of inhibition) [2] | SI (stoichiometry of inhibition) [3] | SI (stoichiometry of inhibition) [4] | k2 (second-order association rate constant of inhibition) [5] | k2 (second-order association rate constant of inhibition) [6] | k2(app) (apparent second-order association rate constant of inhibition) [7] | k2(app) (apparent second-order association rate constant of inhibition) [8] | SI (stoichiometry of inhibition) [9] | SI (stoichiometry of inhibition) [10] | k2(app) (apparent second-order association rate constant of inhibition) [11] | k2(app) (apparent second-order association rate constant of inhibition) [12] | k2(app) x SI (second-order rate constant corrected for SI) [1] | k2(app) x SI (second-order rate constant corrected for SI) [7] | k2(app) x SI (second-order rate constant corrected for SI) [8] | k2(app) x SI (second-order rate constant corrected for SI) [11] | k2(app) x SI (second-order rate constant corrected for SI) [12] | fold decrease in reactivity in the presence of heparin [7] | fold decrease in reactivity in the presence of heparin [8]
1 | Protein Z-dependent protease inhibitor, wild type (natural protein) LAPSPQSPETPAPQNQTSRVVQAPKEEEEDEQEASEEKASEEEKAWLMASRQQLAKETSNFGFSLLRKISMRHDGNMVFSPFGMSLAMTGLMLGATGPTETQIKRGLHLQALKPTKPGLLPSLFKGLRETLSRNLELGLTQGSFAFIHKDFDVKETFFNLSKRYFDTECVPMNFRNASQAKRLMNHYINKETRGKIPKLFDEINPETKLILVDYILFKGKWLTPFDPVFTEVDTFHLDKYKTIKVPMMYGAGKFASTFDKNFRCHVLKLPYQGNATMLVVLMEKMGDHLALEDYLTTDLVETWLRNMKTRNMEVFFPKFKLDQKYEMHELLRQMGIRRIFSPFADLSELSATGRNLQVSRVLQRTVIEVDERGTEAVAGILSEITAYSMPPVIKVDRPFHFMIYEETSGMLLFLGRVVNPTLL | 420000 M⁻¹ s⁻¹ | 3.8 mol I/mol E | 10.2 mol I/mol E | 4.1 mol I/mol E | 30000 M⁻¹ s⁻¹ | 2800 M⁻¹ s⁻¹ | 3400 M⁻¹ s⁻¹ | 58000 M⁻¹ s⁻¹ | 4.3 mol I/mol E | 2.8 mol I/mol E | 180000 M⁻¹ s⁻¹ | 2.5e+06 M⁻¹ s⁻¹ |  |  |  |  |  |  | 
2 | ZPI-3A (ZPI with Lys-113, Lys-116 and Lys-125 substituted with Ala) (natural protein) LAPSPQSPETPAPQNQTSRVVQAPKEEEEDEQEASEEKASEEEKAWLMASRQQLAKETSNFGFSLLRKISMRHDGNMVFSPFGMSLAMTGLMLGATGPTETQIKRGLHLQALAPTAPGLLPSLFAGLRETLSRNLELGLTQGSFAFIHKDFDVKETFFNLSKRYFDTECVPMNFRNASQAKRLMNHYINKETRGKIPKLFDEINPETKLILVDYILFKGKWLTPFDPVFTEVDTFHLDKYKTIKVPMMYGAGKFASTFDKNFRCHVLKLPYQGNATMLVVLMEKMGDHLALEDYLTTDLVETWLRNMKTRNMEVFFPKFKLDQKYEMHELLRQMGIRRIFSPFADLSELSATGRNLQVSRVLQRTVIEVDERGTEAVAGILSEITAYSMPPVIKVDRPFHFMIYEETSGMLLFLGRVVNPTLL | 260000 M⁻¹ s⁻¹ | 3.8 mol I/mol E | 13.3 mol I/mol E | 4.5 mol I/mol E |  |  | 2600 M⁻¹ s⁻¹ | 41000 M⁻¹ s⁻¹ | 5.2 mol I/mol E | 3.3 mol I/mol E | 95000 M⁻¹ s⁻¹ | 2e+06 M⁻¹ s⁻¹ | 1.4e+06 M⁻¹ s⁻¹ | 12000 M⁻¹ s⁻¹ | 540000 M⁻¹ s⁻¹ | 360000 M⁻¹ s⁻¹ | 6.6e+06 M⁻¹ s⁻¹ |  | 
3 | ZPI single mutant with Lys-125 substituted with Ala (natural protein) LAPSPQSPETPAPQNQTSRVVQAPKEEEEDEQEASEEKASEEEKAWLMASRQQLAKETSNFGFSLLRKISMRHDGNMVFSPFGMSLAMTGLMLGATGPTETQIARGLHLQALKPTKPGLLPSLFKGLRETLSRNLELGLTQGSFAFIHKDFDVKETFFNLSKRYFDTECVPMNFRNASQAKRLMNHYINKETRGKIPKLFDEINPETKLILVDYILFKGKWLTPFDPVFTEVDTFHLDKYKTIKVPMMYGAGKFASTFDKNFRCHVLKLPYQGNATMLVVLMEKMGDHLALEDYLTTDLVETWLRNMKTRNMEVFFPKFKLDQKYEMHELLRQMGIRRIFSPFADLSELSATGRNLQVSRVLQRTVIEVDERGTEAVAGILSEITAYSMPPVIKVDRPFHFMIYEETSGMLLFLGRVVNPTLL |  |  |  |  |  |  |  |  |  |  |  |  |  |  |  |  |  | < 2 fold | < 2 fold
4 | ZPI single mutant with Arg-128 substituted with Ala (natural protein) LAPSPQSPETPAPQNQTSRVVQAPKEEEEDEQEASEEKASEEEKAWLMASRQQLAKETSNFGFSLLRKISMRHDGNMVFSPFGMSLAMTGLMLGATGPTETQIKRGLHLQALKPTKPGLLPSLFKGLAETLSRNLELGLTQGSFAFIHKDFDVKETFFNLSKRYFDTECVPMNFRNASQAKRLMNHYINKETRGKIPKLFDEINPETKLILVDYILFKGKWLTPFDPVFTEVDTFHLDKYKTIKVPMMYGAGKFASTFDKNFRCHVLKLPYQGNATMLVVLMEKMGDHLALEDYLTTDLVETWLRNMKTRNMEVFFPKFKLDQKYEMHELLRQMGIRRIFSPFADLSELSATGRNLQVSRVLQRTVIEVDERGTEAVAGILSEITAYSMPPVIKVDRPFHFMIYEETSGMLLFLGRVVNPTLL |  |  |  |  |  |  |  |  |  |  |  |  |  |  |  |  |  | < 2 fold | < 2 fold
5 | ZPI single mutant with Lys-113 substituted with Ala (natural protein) LAPSPQSPETPAPQNQTSRVVQAPKEEEEDEQEASEEKASEEEKAWLMASRQQLAKETSNFGFSLLRKISMRHDGNMVFSPFGMSLAMTGLMLGATGPTETQIKRGLHLQALAPTKPGLLPSLFKGLRETLSRNLELGLTQGSFAFIHKDFDVKETFFNLSKRYFDTECVPMNFRNASQAKRLMNHYINKETRGKIPKLFDEINPETKLILVDYILFKGKWLTPFDPVFTEVDTFHLDKYKTIKVPMMYGAGKFASTFDKNFRCHVLKLPYQGNATMLVVLMEKMGDHLALEDYLTTDLVETWLRNMKTRNMEVFFPKFKLDQKYEMHELLRQMGIRRIFSPFADLSELSATGRNLQVSRVLQRTVIEVDERGTEAVAGILSEITAYSMPPVIKVDRPFHFMIYEETSGMLLFLGRVVNPTLL |  |  |  |  |  |  |  |  |  |  |  |  |  |  |  |  |  | < 2 fold | < 2 fold
6 | ZPI single mutant with Lys-116 substituted with Ala (natural protein) LAPSPQSPETPAPQNQTSRVVQAPKEEEEDEQEASEEKASEEEKAWLMASRQQLAKETSNFGFSLLRKISMRHDGNMVFSPFGMSLAMTGLMLGATGPTETQIKRGLHLQALKPTAPGLLPSLFKGLRETLSRNLELGLTQGSFAFIHKDFDVKETFFNLSKRYFDTECVPMNFRNASQAKRLMNHYINKETRGKIPKLFDEINPETKLILVDYILFKGKWLTPFDPVFTEVDTFHLDKYKTIKVPMMYGAGKFASTFDKNFRCHVLKLPYQGNATMLVVLMEKMGDHLALEDYLTTDLVETWLRNMKTRNMEVFFPKFKLDQKYEMHELLRQMGIRRIFSPFADLSELSATGRNLQVSRVLQRTVIEVDERGTEAVAGILSEITAYSMPPVIKVDRPFHFMIYEETSGMLLFLGRVVNPTLL |  |  |  |  |  |  |  |  |  |  |  |  |  |  |  |  |  | < 2 fold | < 2 fold
7 | ZPI-des-NT (ZPI with the first 52 residues of the acidic N-terminal tail deleted) (domain or fragment) QLAKETSNFGFSLLRKISMRHDGNMVFSPFGMSLAMTGLMLGATGPTETQIKRGLHLQALKPTKPGLLPSLFKGLRETLSRNLELGLTQGSFAFIHKDFDVKETFFNLSKRYFDTECVPMNFRNASQAKRLMNHYINKETRGKIPKLFDEINPETKLILVDYILFKGKWLTPFDPVFTEVDTFHLDKYKTIKVPMMYGAGKFASTFDKNFRCHVLKLPYQGNATMLVVLMEKMGDHLALEDYLTTDLVETWLRNMKTRNMEVFFPKFKLDQKYEMHELLRQMGIRRIFSPFADLSELSATGRNLQVSRVLQRTVIEVDERGTEAVAGILSEITAYSMPPVIKVDRPFHFMIYEETSGMLLFLGRVVNPTLL | 110000 M⁻¹ s⁻¹ | 7.3 mol I/mol E | 15.6 mol I/mol E | 7.4 mol I/mol E |  |  | 2100 M⁻¹ s⁻¹ | 29000 M⁻¹ s⁻¹ | 8.5 mol I/mol E | 4.5 mol I/mol E |  | 1.8e+06 M⁻¹ s⁻¹ | 940000 M⁻¹ s⁻¹ | 15000 M⁻¹ s⁻¹ | 450000 M⁻¹ s⁻¹ |  | 8.1e+06 M⁻¹ s⁻¹ |  | 

— PMC3352997
